In PMC9352680, “A comprehensive thermodynamic model for RNA binding by the Saccharomyces cerevisiae Pumilio protein PUF4”:

T1: PUF4 RNA-binding domain (Saccharomyces cerevisiae, UniProt P25339 537-888)
T1 sequence: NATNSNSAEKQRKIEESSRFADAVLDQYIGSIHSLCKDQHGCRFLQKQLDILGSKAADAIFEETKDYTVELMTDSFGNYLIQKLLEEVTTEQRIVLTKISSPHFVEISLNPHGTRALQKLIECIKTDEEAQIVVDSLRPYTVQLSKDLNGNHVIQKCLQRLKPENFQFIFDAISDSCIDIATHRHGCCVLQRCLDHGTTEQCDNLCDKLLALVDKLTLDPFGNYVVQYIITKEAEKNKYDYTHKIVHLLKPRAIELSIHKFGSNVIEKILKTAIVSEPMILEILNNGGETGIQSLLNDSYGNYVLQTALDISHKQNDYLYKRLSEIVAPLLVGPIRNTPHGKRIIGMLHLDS


biological target: T1, PUF4 RNA-binding domain; assay: Mg; RNA-MaP; 20 mM Na-HEPES pH 7.4, 30 mM KOAc, 0.75 mM MgCl2, 0.1% Tween-20, 5% glycerol, 0.1 mg/mL BSA, 2 mM DTT; 25 C; 0.0125-409.6 nM protein; conditions: tags: N-His6-TEV cleaved; C-SNAP kept, Cy3B-labelled; label: tethered on chip by stalled RNA polymerase

Binder | Kd
UCUCUUUGUAGCUUAUCUCUU (ssRNA) [Ic_S1_P4E.1_K4.1_C4.1_H4.1_A4.1_[T5G]_[A6C]_F4.1_T4.1] | 28.6 nM
UCUCUUCUUAUAUAUUAUAUCUCUU (ssRNA) [Id_ii_S1_P4E.3_K4.2_C4.2_H4.2_A4.1_F4.1_T4.2_[G10T]_[T11A]] | 27.7 nM
UCUCUUGCACACUAUUAAUUCUCUU (ssRNA) [Id_ii_S1_P4E.4_K4.3_C4.2_[C-2G]_[T-1C]_H4.3_A4.1_F4.1_T4.2_[G10A]] | 93.8 nM
UCUCUUUGACACUAUUACAUCUCUU (ssRNA) [Id_ii_S1_P4E.4_K4.3_C4.2_[C-2T]_[T-1G]_H4.3_A4.1_F4.1_T4.2_[G10C]_[T11A]] | > 2300 nM
UCUCUUGUACACUAUUAUAUCUCUU (ssRNA) [Id_ii_S1_P4E.4_K4.3_C4.2_[C-2G]_H4.3_A4.1_F4.1_T4.2_[G10T]_[T11A]] | 1.07 nM
UCUCUUGUACACUAUUAGCUCUCUU (ssRNA) [Id_ii_S1_P4E.4_K4.3_C4.2_[C-2G]_H4.3_A4.1_F4.1_T4.2_[T11C]] | 0.962 nM
UCUCUUUCACACUAUUAUCUCUCUU (ssRNA) [Id_ii_S1_P4E.4_K4.3_C4.2_[C-2T]_[T-1C]_H4.3_A4.1_F4.1_T4.2_[G10T]_[T11C]] | > 2300 nM
UCUCUUGCACACUAUUAACUCUCUU (ssRNA) [Id_ii_S1_P4E.4_K4.3_C4.2_[C-2G]_[T-1C]_H4.3_A4.1_F4.1_T4.2_[G10A]_[T11C]] | 69.5 nM
UCUCUUGCACACUAUUAGUUCUCUU (ssRNA) [Id_ii_S1_P4E.4_K4.3_C4.2_[C-2G]_[T-1C]_H4.3_A4.1_F4.1_T4.2] | 347 nM
UCUCUUCUUAUAUAUUAGUUCUCUU (ssRNA) [If_S1_P4E.3_K4.2_C4.2_H4.2_A4.1_F4.1_T4.2] | 7.55 nM
UCUCUUGUACACUAUUAAUUCUCUU (ssRNA) [Id_ii_S1_P4E.4_K4.3_C4.2_[C-2G]_H4.3_A4.1_F4.1_T4.2_[G10A]] | 1.04 nM
UCUCUUUAACACUAUUAUUUCUCUU (ssRNA) [Id_ii_S1_P4E.4_K4.3_C4.2_[C-2T]_[T-1A]_H4.3_A4.1_F4.1_T4.2_[G10T]] | > 2300 nM
UCUCUUUAACACUAUUACUUCUCUU (ssRNA) [Id_ii_S1_P4E.4_K4.3_C4.2_[C-2T]_[T-1A]_H4.3_A4.1_F4.1_T4.2_[G10C]] | > 2300 nM
UCUCUUUGUCUAAUAUCUCUU (ssRNA) [Ib_S1_P4E.1_K4.1_C4.1_H4.1_[A4C]_A4.1_[T7A]_F4.1_T4.1] | 83.9 nM
UCUCUUGCACACUAUUACGUCUCUU (ssRNA) [Id_ii_S1_P4E.4_K4.3_C4.2_[C-2G]_[T-1C]_H4.3_A4.1_F4.1_T4.2_[G10C]_[T11G]] | 408 nM
UCUCUUUGUGUACUAUCUCUU (ssRNA) [Ib_S1_P4E.1_K4.1_C4.1_H4.1_[A4G]_A4.1_[T7C]_F4.1_T4.1] | 6.14 nM
UCUCUUCUUAUAUAUUAAAUCUCUU (ssRNA) [Id_ii_S1_P4E.3_K4.2_C4.2_H4.2_A4.1_F4.1_T4.2_[G10A]_[T11A]] | 43.5 nM
UCUCUUCUUAUAUAUUAAUUCUCUU (ssRNA) [Id_ii_S1_P4E.3_K4.2_C4.2_H4.2_A4.1_F4.1_T4.2_[G10A]] | 18.9 nM
UCUCUUCAUAUAUAUUAGAUCUCUU (ssRNA) [Id_ii_S1_P4E.3_K4.2_C4.2_[T-1A]_H4.2_A4.1_F4.1_T4.2_[T11A]] | 19.9 nM

Binder | Kd
UCUCUUCAUAUAUAUUAGUUCUCUU (ssRNA) [Id_ii_S1_P4E.3_K4.2_C4.2_[T-1A]_H4.2_A4.1_F4.1_T4.2] | 8.18 nM
UCUCUUUGUAUAUCUCUCUU (ssRNA) [Ia_S1_P3E.1_K3.1_C3.1_H3.1_A3.1_F3.1_[A8C]_T3.1] | 14.8 nM
UCUCUUUGACACUAUUAUAUCUCUU (ssRNA) [Id_ii_S1_P4E.4_K4.3_C4.2_[C-2T]_[T-1G]_H4.3_A4.1_F4.1_T4.2_[G10T]_[T11A]] | 2180 nM
UCUCUUUGUAUUACUAUCUCUU (ssRNA) [Ia_S1_P5E.1_K5.1_C5.1_H5.1_A5.1_F5.1_[T8C]_T5.1] | 9.98 nM
UCUCUUUGACACUAUUACUUCUCUU (ssRNA) [Id_ii_S1_P4E.4_K4.3_C4.2_[C-2T]_[T-1G]_H4.3_A4.1_F4.1_T4.2_[G10C]] | > 2300 nM
UCUCUUCAUAUAUAUUAACUCUCUU (ssRNA) [Id_ii_S1_P4E.3_K4.2_C4.2_[T-1A]_H4.2_A4.1_F4.1_T4.2_[G10A]_[T11C]] | 39.7 nM
UCUCUUCUUAUAUAUUAUUUCUCUU (ssRNA) [Id_ii_S1_P4E.3_K4.2_C4.2_H4.2_A4.1_F4.1_T4.2_[G10T]] | 15.7 nM
UCUCUUUGACACUAUUAUUUCUCUU (ssRNA) [Id_ii_S1_P4E.4_K4.3_C4.2_[C-2T]_[T-1G]_H4.3_A4.1_F4.1_T4.2_[G10T]] | > 2300 nM
UCUCUUUGACACUAUUAUCUCUCUU (ssRNA) [Id_ii_S1_P4E.4_K4.3_C4.2_[C-2T]_[T-1G]_H4.3_A4.1_F4.1_T4.2_[G10T]_[T11C]] | > 2300 nM
UCUCUUGCACACUAUUAUUUCUCUU (ssRNA) [Id_ii_S1_P4E.4_K4.3_C4.2_[C-2G]_[T-1C]_H4.3_A4.1_F4.1_T4.2_[G10T]] | 71 nM
UCUCUUUGACACUAUUAACUCUCUU (ssRNA) [Id_ii_S1_P4E.4_K4.3_C4.2_[C-2T]_[T-1G]_H4.3_A4.1_F4.1_T4.2_[G10A]_[T11C]] | > 2300 nM
UCUCUUGCACACUAUUAAAUCUCUU (ssRNA) [Id_ii_S1_P4E.4_K4.3_C4.2_[C-2G]_[T-1C]_H4.3_A4.1_F4.1_T4.2_[G10A]_[T11A]] | 131 nM
UCUCUUCAUAUAUAUUAAUUCUCUU (ssRNA) [Id_ii_S1_P4E.3_K4.2_C4.2_[T-1A]_H4.2_A4.1_F4.1_T4.2_[G10A]] | 36.3 nM
UCUCUUGCACACUAUUAUCUCUCUU (ssRNA) [Id_ii_S1_P4E.4_K4.3_C4.2_[C-2G]_[T-1C]_H4.3_A4.1_F4.1_T4.2_[G10T]_[T11C]] | 91.3 nM
UCUCUUGCACACUAUUAUAUCUCUU (ssRNA) [Id_ii_S1_P4E.4_K4.3_C4.2_[C-2G]_[T-1C]_H4.3_A4.1_F4.1_T4.2_[G10T]_[T11A]] | 351 nM
UCUCUUGCACACUAUUACUUCUCUU (ssRNA) [Id_ii_S1_P4E.4_K4.3_C4.2_[C-2G]_[T-1C]_H4.3_A4.1_F4.1_T4.2_[G10C]] | 74.1 nM
UCUCUUGUACACUAUUACCUCUCUU (ssRNA) [Id_ii_S1_P4E.4_K4.3_C4.2_[C-2G]_H4.3_A4.1_F4.1_T4.2_[G10C]_[T11C]] | 0.615 nM
UCUCUUGCACACUAUUACAUCUCUU (ssRNA) [Id_ii_S1_P4E.4_K4.3_C4.2_[C-2G]_[T-1C]_H4.3_A4.1_F4.1_T4.2_[G10C]_[T11A]] | 99.1 nM
UCUCUUGUACACUAUUAUUUCUCUU (ssRNA) [Id_ii_S1_P4E.4_K4.3_C4.2_[C-2G]_H4.3_A4.1_F4.1_T4.2_[G10T]] | 0.832 nM

Binder | Kd
UCUCUUUGACACUAUUACCUCUCUU (ssRNA) [Id_ii_S1_P4E.4_K4.3_C4.2_[C-2T]_[T-1G]_H4.3_A4.1_F4.1_T4.2_[G10C]_[T11C]] | > 2300 nM
UCUCUUUGUUUAGUAUCUCUU (ssRNA) [Ib_S1_P4E.1_K4.1_C4.1_H4.1_[A4T]_A4.1_[T7G]_F4.1_T4.1] | 24.4 nM
UCUCUUUCACACUAUUACCUCUCUU (ssRNA) [Id_ii_S1_P4E.4_K4.3_C4.2_[C-2T]_[T-1C]_H4.3_A4.1_F4.1_T4.2_[G10C]_[T11C]] | > 2300 nM
UCUCUUGUACACUAUUAAAUCUCUU (ssRNA) [Id_ii_S1_P4E.4_K4.3_C4.2_[C-2G]_H4.3_A4.1_F4.1_T4.2_[G10A]_[T11A]] | 0.983 nM
UCUCUUCAUAUAUAUUAGCUCUCUU (ssRNA) [Id_ii_S1_P4E.3_K4.2_C4.2_[T-1A]_H4.2_A4.1_F4.1_T4.2_[T11C]] | 8.31 nM
UCUCUUGUACACUAUUAGUUCUCUU (ssRNA) [Id_ii_S1_P4E.4_K4.3_C4.2_[C-2G]_H4.3_A4.1_F4.1_T4.2] | 1.27 nM
UCUCUUGUACACUAUUAUCUCUCUU (ssRNA) [Id_ii_S1_P4E.4_K4.3_C4.2_[C-2G]_H4.3_A4.1_F4.1_T4.2_[G10T]_[T11C]] | 0.681 nM
UCUCUUCUUAUAUAUUACAUCUCUU (ssRNA) [Id_ii_S1_P4E.3_K4.2_C4.2_H4.2_A4.1_F4.1_T4.2_[G10C]_[T11A]] | 13.5 nM
UCUCUUGUACACUAUUAACUCUCUU (ssRNA) [Id_ii_S1_P4E.4_K4.3_C4.2_[C-2G]_H4.3_A4.1_F4.1_T4.2_[G10A]_[T11C]] | 0.968 nM
UCUCUUCAUAUAUAUUAUUUCUCUU (ssRNA) [Id_ii_S1_P4E.3_K4.2_C4.2_[T-1A]_H4.2_A4.1_F4.1_T4.2_[G10T]] | 21.2 nM
UCUCUUCUUAUAUAUUAUGUCUCUU (ssRNA) [Id_ii_S1_P4E.3_K4.2_C4.2_H4.2_A4.1_F4.1_T4.2_[G10T]_[T11G]] | 12.2 nM
UCUCUUCUUAUAUAUUAUCUCUCUU (ssRNA) [Id_ii_S1_P4E.3_K4.2_C4.2_H4.2_A4.1_F4.1_T4.2_[G10T]_[T11C]] | 13.9 nM
UCUCUUUGACACUAUUAGCUCUCUU (ssRNA) [Id_ii_S1_P4E.4_K4.3_C4.2_[C-2T]_[T-1G]_H4.3_A4.1_F4.1_T4.2_[T11C]] | > 2300 nM
UCUCUUCUUAUAUAUUACUUCUCUU (ssRNA) [Id_ii_S1_P4E.3_K4.2_C4.2_H4.2_A4.1_F4.1_T4.2_[G10C]] | 18.3 nM
UCUCUUUCACACUAUUACUUCUCUU (ssRNA) [Id_ii_S1_P4E.4_K4.3_C4.2_[C-2T]_[T-1C]_H4.3_A4.1_F4.1_T4.2_[G10C]] | > 2300 nM
UCUCUUCAUAUAUAUUAGGUCUCUU (ssRNA) [Id_ii_S1_P4E.3_K4.2_C4.2_[T-1A]_H4.2_A4.1_F4.1_T4.2_[T11G]] | 18.2 nM
UCUCUUCUUAUAUAUUAGCUCUCUU (ssRNA) [Id_ii_S1_P4E.3_K4.2_C4.2_H4.2_A4.1_F4.1_T4.2_[T11C]] | 7.8 nM
UCUCUUUGUGUAAUAUCUCUU (ssRNA) [Ib_S1_P4E.1_K4.1_C4.1_H4.1_[A4G]_A4.1_[T7A]_F4.1_T4.1] | 10.4 nM
UCUCUUCUUAUAUAUUACGUCUCUU (ssRNA) [Id_ii_S1_P4E.3_K4.2_C4.2_H4.2_A4.1_F4.1_T4.2_[G10C]_[T11G]] | 16.6 nM
